This note sets out measurements from US7470669B2, “Isolated polypeptide comprising a leptin fragment” (Serono Genetics Institute, S.A., priority 1999, dated 2008).

One data set concerns ob/ob mice. In words: Food intake of ob/ob mice under daily subcutaneous injections. The data set is classed as in vivo, mouse. As to conditions: daily subcutaneous injections of 25 μg over a 12 day period. As to the method:
A synthetic peptide with a sequence identical to that of mouse leptin between residues 117-138 was obtained and found to stimulate the oleate-induced binding of ^125I-LDL in primary cultures of rat hepatocytes (FIG. 11B, insert). Daily subcutaneous injections of 25 μg of this synthetic leptin peptide to ob/ob mice had no effect on the food intake over a 12 day period (7.6±0.4 g/day in ob/ob receiving saline and 6.7±0.3 g/day in ob/ob receiving peptide; n=4, NS). Daily injections of 25 μg of mouse leptin caused a reduction of food intake to 4.7±0.5 g/day (n=3; p<0.003 versus controls).

The subject of a further data set is LSR. Nature of the data set: LSR activity (oleate-induced 125I-LDL binding, uptake, degradation) in primary cultures of rat hepatocytes. It is filed as cell-based. The procedure: FIGS. 6A, 6B, and 6C show the effect of leptin on ^125I-LDL and ^125I-chylomicron binding to LSR in primary cultures of rat hepatocytes. For FIG. 6A, primary cultures of rat hepatocytes (48 hours after plating) were incubated at 37° C. for 30 min in the absence (□) or presence (▪) of 50 ng/mL leptin in Buffer A, followed by a 20 min incubation at 37° C. with 0.5 mM oleate. The cells were then washed with ice-cold PBS, precooled for 10 min, and then incubated for 1 h at 4° C. with increasing concentrations of ^125I-LDL in Buffer A. Cells were washed, were lysed in 0.1 N NaOH and were counted for radioactivity. Results are shown as the mean of duplicate determinations. […] The media was recovered and the radioactivity was measured. […] The amount of ^125I-chylomicrons bound was determined, and results are shown as means±SD of triplicate (irrelevant) or quadruplicate (anti-LSR) determinations.
FIGS. 7A and 7B show a comparison of the effect of human and mouse leptin on LSR activity in rat hepatocytes and on postprandial increase in plasma TG in db^Pas/db^Pas mice. […] The media were removed and were analyzed for TCA-soluble degradation products. […] The data represent the difference in TG concentrations measured at t=0 and the average of the concentrations at 3 and 4 hours. […]

B1: mouse leptin: recombinant mouse leptin, laboratory-prepared or commercial (Sigma, Calbiochem) (protein, UniProt P41160 22-167, looked up)
Leptin: VPIQKVQDDTKTLIKTIVTRINDISHTQSVSAKQRVTGLDFIPGLHPILSLSKMDQTLAVYQQVLTSLPSQNVLQIANDLENLRDLLHLLAFSKSCSLPQTSGLQKPESLDGVLEASLYSTEVVALSRLQGSLQDILQQLDVSPEC
In the data set with ob/ob mice, B1 yielded a food intake of 4.7 ± 0.5 g/day. The “stimulation of LSR-mediated LDL degradation in primary cultures of rat hepatocytes” value in the data set on LSR (10 ng/mL recombinant leptin) is “more efficient than human leptin”. Moreover, the “oleate-induced 125I-LDL binding to the cell surface” value in the data set on LSR (rat hepatocytes, 30 min preincubation with 20 ng/mL at 37° C., binding at 4° C.) is “increased”.
